Reference: patent publication US20140271457A1 (AbbVie / Abbott, published 2014)
Residue numbers refer to the chain shown, from its start.

B1: DVD3213 (bispecific antibody, IgG1)
VH: EVQLVESGGGLVQPGGSLRLSCAASGFTFSNYGVEWVRQAPGKGLEWVSGIWADGSTHYADTVKSRFTISRDNSKNTLYLQMNSLRAEDTAVYYCAREWQHGPVAYWGQGTLVTVSSGGGGSGGGGSEVQLVESGGGLVQPGGSLRLSCAASGFSFSKYWLGWVRQAPGKGLEWVSDIYPGYDYTHYNEKFKDRFTISADTSKNTAYLQMNSLRAEDTAVYYCARSDGSSTYWGQGTLVTVSS
VL: DIQMTQSPSSLSASVGDRVTITCKASQLVSSAVAWYQQKPGKAPKLLIYWASTLHTGVPSRFSGSGSGTDFTLTISSLQPEDFATYYCQQHYRTPFTFGQGTKLEIKRGGSGGGGSGDIQMTQSPSSLSASVGDRVTITCTSSQNIVHSNGNTYLEWYQQKPGKAPKLLIYKVSNRFSGVPSRFSGSGSGTDFTLTISSLQPEDFATYYCFQVSHVPYTFGQGTKVEIKR
B2: DVD3207 (bispecific antibody, IgG1)
VH: EVQLVESGGGLVQPGGSLRLSCAASGFTFSNYGVTWVRQAPGKGLEWVSMIWADGSTHYASSVKGRFTISRDNSKNTLYLQMNSLRAEDTAVYYCAREWQHGPVAYWGQGTLVTVSSASTKGPSVFPLAPEVQLVESGGGLVQPGGSLRLSCAASGFSFSKYWLGWVRQAPGKGLEWVSDIYPGYDYTHYNEKFKDRFTISADTSKNTAYLQMNSLRAEDTAVYYCARSDGSSTYWGQGTLVTVSS
VL: DIQMTQSPSSLSASVGDRVTITCRASQLVSSAVAWYQQKPGKAPKLLIYWASARHTGVPSRFSGSGSGTDFTLTISSLQPEDFATYYCQQHYKTPFTFGQGTKLEIKRTVAAPDIQMTQSPSSLSASVGDRVTITCTSSQNIVHSNGNTYLEWYQQKPGKAPKLLIYKVSNRFSGVPSRFSGSGSGTDFTLTISSLQPEDFATYYCFQVSHVPYTFGQGTKVEIKR
B3: DVD3217 (bispecific antibody, IgG1)
VH: B2 VH with T35E, M50G, S61D, S62T, G65S
VL: B2 VL with R24K, A53T, R54L, K93R
B4: DVD3209 (bispecific antibody, IgG1)
VH: EVQLVESGGGLVQPGGSLRLSCAASGFSFSKYWLGWVRQAPGKGLEWVSDIYPGYDYTHYNEKFKDRFTISADTSKNTAYLQMNSLRAEDTAVYYCARSDGSSTYWGQGTLVTVSSASTKGPEVQLVESGGGLVQPGGSLRLSCAASGFTFSNYGVTWVRQAPGKGLEWVSMIWADGSTHYASSVKGRFTISRDNSKNTLYLQMNSLRAEDTAVYYCAREWQHGPVAYWGQGTLVTVSS
VL: DIQMTQSPSSLSASVGDRVTITCTSSQNIVHSNGNTYLEWYQQKPGKAPKLLIYKVSNRFSGVPSRFSGSGSGTDFTLTISSLQPEDFATYYCFQVSHVPYTFGQGTKVEIKRTVAAPDIQMTQSPSSLSASVGDRVTITCRASQLVSSAVAWYQQKPGKAPKLLIYWASARHTGVPSRFSGSGSGTDFTLTISSLQPEDFATYYCQQHYKTPFTFGQGTKLEIKR
B5: DVD3212 (bispecific antibody, IgG1)
VH: EVQLVESGGGLVQPGGSLRLSCAASGFSFSKYWLGWVRQAPGKGLEWVSDIYPGYDYTHYNEKFKDRFTISADTSKNTAYLQMNSLRAEDTAVYYCARSDGSSTYWGQGTLVTVSSASTKGPSVFPLAPEVQLVESGGGLVQPGGSLRLSCAASGFTFSNYGVTWVRQAPGKGLEWVSMIWADGSTHYASSVKGRFTISRDNSKNTLYLQMNSLRAEDTAVYYCAREWQHGPVAYWGQGTLVTVSS
VL: B4 VL
B6: DVD3219 (bispecific antibody, IgG1)
VH: B4 VH with T157E, M172G, S183D, S184T, G187S
VL: B4 VL with R142K, A171T, R172L, K211R
B7: DVD3221 (bispecific antibody, IgG1)
VH: B4 VH with T157E, M172G, S183D, S184T, G187S
VL: DIQMTQSPSSLSASVGDRVTITCTSSQNIVHSNGNTYLEWYQQKPGKAPKLLIYKVSNRFSGVPSRFSGSGSGTDFTLTISSLQPEDFATYYCFQVSHVPYTFGQGTKVEIKRTVAAPSVFIFPPDIQMTQSPSSLSASVGDRVTITCKASQLVSSAVAWYQQKPGKAPKLLIYWASTLHTGVPSRFSGSGSGTDFTLTISSLQPEDFATYYCQQHYRTPFTFGQGTKLEIKR
B8: DVD3211 (bispecific antibody, IgG1)
VH: B4 VH
VL: B7 VL with K149R, T178A, L179R, R218K
B9: DVD3208 (bispecific antibody, IgG1)
VH: EVQLVESGGGLVQPGGSLRLSCAASGFSFSKYWLGWVRQAPGKGLEWVSDIYPGYDYTHYNEKFKDRFTISADTSKNTAYLQMNSLRAEDTAVYYCARSDGSSTYWGQGTLVTVSSGGGGSGGGGSEVQLVESGGGLVQPGGSLRLSCAASGFTFSNYGVTWVRQAPGKGLEWVSMIWADGSTHYASSVKGRFTISRDNSKNTLYLQMNSLRAEDTAVYYCAREWQHGPVAYWGQGTLVTVSS
VL: DIQMTQSPSSLSASVGDRVTITCTSSQNIVHSNGNTYLEWYQQKPGKAPKLLIYKVSNRFSGVPSRFSGSGSGTDFTLTISSLQPEDFATYYCFQVSHVPYTFGQGTKVEIKRGGSGGGGSGDIQMTQSPSSLSASVGDRVTITCRASQLVSSAVAWYQQKPGKAPKLLIYWASARHTGVPSRFSGSGSGTDFTLTISSLQPEDFATYYCQQHYKTPFTFGQGTKLEIKR
B10: DVD3218 (bispecific antibody, IgG1)
VH: B9 VH with T161E, M176G, S187D, S188T, G191S
VL: B9 VL with R146K, A175T, R176L, K215R
B11: DVD3206 (bispecific antibody, IgG1)
VH: EVQLVESGGGLVQPGGSLRLSCAASGFTFSNYGVTWVRQAPGKGLEWVSMIWADGSTHYASSVKGRFTISRDNSKNTLYLQMNSLRAEDTAVYYCAREWQHGPVAYWGQGTLVTVSSASTKGPEVQLVESGGGLVQPGGSLRLSCAASGFSFSKYWLGWVRQAPGKGLEWVSDIYPGYDYTHYNEKFKDRFTISADTSKNTAYLQMNSLRAEDTAVYYCARSDGSSTYWGQGTLVTVSS
VL: DIQMTQSPSSLSASVGDRVTITCRASQLVSSAVAWYQQKPGKAPKLLIYWASARHTGVPSRFSGSGSGTDFTLTISSLQPEDFATYYCQQHYKTPFTFGQGTKLEIKRTVAAPSVFIFPPDIQMTQSPSSLSASVGDRVTITCTSSQNIVHSNGNTYLEWYQQKPGKAPKLLIYKVSNRFSGVPSRFSGSGSGTDFTLTISSLQPEDFATYYCFQVSHVPYTFGQGTKVEIKR
B12: DVD3216 (bispecific antibody, IgG1)
VH: B11 VH with T35E, M50G, S61D, S62T, G65S
VL: B11 VL with R24K, A53T, R54L, K93R
B13: DVD3214 (bispecific antibody, IgG1)
VH: B11 VH with T35E, M50G, S61D, S62T, G65S
VL: B2 VL with R24K, A53T, R54L, K93R

Molecular target: Recombinant Human TNF-α/TNFSF1A (human, UniProt P01375 77-233)
Sequence (P01375 77-233 limits assumed): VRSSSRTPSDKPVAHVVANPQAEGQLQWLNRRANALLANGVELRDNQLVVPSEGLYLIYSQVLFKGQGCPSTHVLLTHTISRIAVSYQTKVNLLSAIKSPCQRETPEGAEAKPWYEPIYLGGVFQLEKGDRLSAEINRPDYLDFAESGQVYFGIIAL
Assay: cell-based or functional assay

Row | N-Terminal VD huTNFα Neutralization Assay IC50 [nM] | C-Terminal VD huTNFα Neutralization Assay IC50 [nM] | Binder
1 | 0.01 | – | B1
2 | 0.005 | – | B2
3 | 0.008 | – | B3
4 | – | 0.536 | B4
5 | – | 0.039 | B5
6 | – | 2.1 | B6
7 | – | 0.479 | B7
8 | – | 0.014 | B8
9 | – | 0.172 | B9
10 | – | 0.413 | B10
11 | 0.001 | – | B11
12 | 0.022 | – | B12
13 | 0.02 | – | B13
